T1: CD97 (ADGRE5) isoform 1 ectodomain, purified and biotinylated (human, UniProt P48960 21-552, limits assumed, biotinylated in vitro using the BirA enzyme)
T1 construct: the whole entry for isoform 1 is named here; also called CD97 isoform 1; Biotinylated CD97 isoform 1
T1 sequence: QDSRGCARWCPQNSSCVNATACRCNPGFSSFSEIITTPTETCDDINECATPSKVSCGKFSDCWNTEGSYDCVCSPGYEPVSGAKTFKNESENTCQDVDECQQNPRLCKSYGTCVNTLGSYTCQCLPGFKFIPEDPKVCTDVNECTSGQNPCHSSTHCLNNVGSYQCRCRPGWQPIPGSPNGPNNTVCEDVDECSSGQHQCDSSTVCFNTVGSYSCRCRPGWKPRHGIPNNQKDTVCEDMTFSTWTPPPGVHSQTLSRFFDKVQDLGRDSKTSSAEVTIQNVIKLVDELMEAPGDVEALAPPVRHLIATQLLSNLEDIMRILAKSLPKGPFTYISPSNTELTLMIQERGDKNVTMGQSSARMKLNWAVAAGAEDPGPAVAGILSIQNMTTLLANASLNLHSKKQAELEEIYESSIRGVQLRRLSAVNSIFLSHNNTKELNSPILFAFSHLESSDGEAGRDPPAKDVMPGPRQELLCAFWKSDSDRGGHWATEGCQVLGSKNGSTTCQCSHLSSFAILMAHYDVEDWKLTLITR

T2: CD97 (ADGRE5) isoform 2 ectodomain, purified and biotinylated (human, UniProt P48960 21-552, biotinylated in vitro using the BirA enzyme)
T2 construct: the whole entry for isoform 2 is named here; also called CD97 isoform 2
T2 sequence: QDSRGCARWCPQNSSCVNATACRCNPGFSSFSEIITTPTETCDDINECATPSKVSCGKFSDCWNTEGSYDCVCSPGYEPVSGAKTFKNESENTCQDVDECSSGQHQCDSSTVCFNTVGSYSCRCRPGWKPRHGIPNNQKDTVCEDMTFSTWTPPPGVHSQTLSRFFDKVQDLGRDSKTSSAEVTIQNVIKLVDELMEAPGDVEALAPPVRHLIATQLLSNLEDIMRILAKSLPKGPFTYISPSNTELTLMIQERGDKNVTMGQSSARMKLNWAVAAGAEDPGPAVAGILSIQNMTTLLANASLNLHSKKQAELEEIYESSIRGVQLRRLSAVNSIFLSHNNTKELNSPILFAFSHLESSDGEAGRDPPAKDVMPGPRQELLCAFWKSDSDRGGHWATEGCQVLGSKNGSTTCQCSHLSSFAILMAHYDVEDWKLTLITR

B1: hIgG1_LALA D25 (antibody, V domains shown)
VH: EVQLVESGGGLVQPGGSLRLSCAASGFTFSSSSIHWVRQAPGKGLEWVASISPYYGSTSYADSVKGRFTISADTSKNTAYLQMNSLRAEDTAVYYCARKLEWGMFFWSPYFRALDYWGQGTLVTVSS
VL: DIQMTQSPSSLSASVGDRVTITCRASQSVSSAVAWYQQKPGKAPKLLIYSASSLYSGVPSRFSGSRSGTDFTLTISSLQPEDFATYYCQQSSSSLITFGQGTKVEIK
B2: hIgG1_LALA 2Z3 (antibody, V domains shown)
VH: EVQLVESGGGLVQPGGSLRLSCAASGFTFSSSSIHWVRQAPGKGLEWVASISSSSGSTSYADSVKGRFTISADTSKNTAYLQMNSLRAEDTAVYYCARVLLGKFWYYNYYEYSAMDYWGQGTLVTVSS
VL: B1 VL
B3: hIgG1_LALA 2W1 (antibody, V domains shown)
VH: EVQLVESGGGLVQPGGSLRLSCAASGFTVSSSSIHWVRQAPGKGLEWVAYISSSSGSTYYADSVKGRFTISADTSKNTAYLQMNSLRAEDTAVYYCARDFYFGSYYSFGWGLDYWGQGTLVTVSS
VL: B1 VL with S91D, S94Y, L95P
B4: Antibody clone C27, human IgG1 LALA-PG format (antibody, V domains shown)
VH: EVQLVESGGGLVQPGGSLRLSCAASGFTLSSSSIHWVRQAPGKGLEWVASIYSYYGSTYYADSVKGRFTISADTSKNTAYLQMNSLRAEDTAVYYCARYRGNMYYWESWYGSYWALDYWGQGTLVTVSS
VL: DIQMTQSPSSLSASVGDRVTITCRASQSVSSAVAWYQQKPGKAPKLLIYSASSLYSGVPSRFSGSRSGTDFTLTISSLQPEDFATYYCQQSSSSLITFGQGTKVEIKR
B5: Antibody clone 2V10, human IgG1 LALA-PG format (antibody, V domains shown)
VH: EVQLVESGGGLVQPGGSLRLSCAASGFTISSSSIHWVRQAPGKGLEWVAYIYPSSGSTSYADSVKGRFTISADTSKNTAYLQMNSLRAEDTAVYYCARPWYYSTFNKKWWDYQGLDYWGQGTLVTVSS
VL: B4 VL with S92W, S93W, S94D, L95P
B6: Fab 2Z11 (Fab, V domains shown)
VH: EVQLVESGGGLVQPGGSLRLSCAASGFTFYYSSIHWVRQAPGKGLEWVASIYSYSGYTSYADSVKGRFTISADTSKNTAYLQMNSLRAEDTAVYYCARYYISGPYYAYRSYTSYAMDYWGQGTLVTVSS
VL: DIQMTQSPSSLSASVGDRVTITCRASQSVSSAVAWYQQKPGKAPKLLIYSASSLYSGVPSRFSGSRSGTDFTLTISSLQPEDFATYYCQQYWGYSLITFGQGTKVEIKR
notes: second discovery campaign; biotinylated Fab in the bead assay; also called Antibody Clone 2Z11
B7: Fab 2Z7 (Fab, V domains shown)
VH: EVQLVESGGGLVQPGGSLRLSCAASGFTFSSSSIHWVRQAPGKGLEWVASISSSSGSTSYADSVKGRFTISADTSKNTAYLQMNSLRAEDTAVYYCARSYWERYYYWYYFYQYELGLDYWGQGTLVTVSS
VL: B4 VL
notes: second discovery campaign; biotinylated Fab in the bead assay; also called Antibody Clone 2Z7

Changes are numbered by the printed parent chain.

What is called Kd is a measure of binding affinity in units of concentration. A higher Kd goes with lower affinity.

One test has as its target Endogenous CD97 on the cell surface (human) (UniProt P48960). Put plainly: cell-based binding titration on OCI-AML3 cells, flow cytometry, 1:1 fit. (In general: A flow cytometer gives signals particle by particle.)
Molecule B1 displayed a Kd of 1 nM.

Consider B2, for which the Kd worked out at 140 nM.

B3 came in with a Kd of 25 nM.

On to B4, for which the Kd is 9.6 nM.

Molecule B5 yielded a Kd of 0.3 nM. This Kd lies about 32-fold lower than the previous one.

The target in the next test is T1, CD97 (ADGRE5) isoform 1 ectodomain, …. Put plainly: bead-based binding titration (biotinylated antigen on streptavidin beads, flow cytometry), 1:1 fit.
As to B6, binding was characterised by a dissociation constant (Kd) of 3.4 nM.

The molecule B7 registered a Kd of 38 nM.

The next test addresses T2, CD97 (ADGRE5) isoform 2 ectodomain, …. Described as above.
Consider B6, for which the Kd is 3 nM.

The molecule B7 gave a Kd of 30 nM.

These data come from patent publication US20250051474A1, “ANTI-CD97 ANTIBODIES AND ANTIBODY-DRUG CONJUGATES” (New York University, priority 2023, published 2025).
